According to article PMC3458707 (Chemistry & biology, 2012):
Where two headings read alike, the source gives them in different places.

What was measured:
Assay in all cases: native MS
[1] = biological target: T1, pig heart citrate synthase (pig, UniProt P00889 28-464)
T1 sequence (looked up): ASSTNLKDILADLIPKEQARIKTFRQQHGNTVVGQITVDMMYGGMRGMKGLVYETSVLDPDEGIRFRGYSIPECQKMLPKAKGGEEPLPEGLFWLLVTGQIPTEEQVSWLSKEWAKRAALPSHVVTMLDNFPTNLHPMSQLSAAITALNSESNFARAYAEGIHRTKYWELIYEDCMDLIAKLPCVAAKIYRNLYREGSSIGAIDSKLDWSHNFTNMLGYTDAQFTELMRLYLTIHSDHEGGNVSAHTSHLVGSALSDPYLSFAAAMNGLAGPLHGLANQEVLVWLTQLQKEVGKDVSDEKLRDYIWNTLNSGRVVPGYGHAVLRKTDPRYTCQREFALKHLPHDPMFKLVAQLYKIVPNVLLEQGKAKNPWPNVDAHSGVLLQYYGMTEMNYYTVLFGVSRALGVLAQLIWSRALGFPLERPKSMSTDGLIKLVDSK

[2] = biological target: T2, Recombinant firefly luciferase (firefly, UniProt P08659 1-550 = luciferase)
T2 sequence (P08659 whole entry): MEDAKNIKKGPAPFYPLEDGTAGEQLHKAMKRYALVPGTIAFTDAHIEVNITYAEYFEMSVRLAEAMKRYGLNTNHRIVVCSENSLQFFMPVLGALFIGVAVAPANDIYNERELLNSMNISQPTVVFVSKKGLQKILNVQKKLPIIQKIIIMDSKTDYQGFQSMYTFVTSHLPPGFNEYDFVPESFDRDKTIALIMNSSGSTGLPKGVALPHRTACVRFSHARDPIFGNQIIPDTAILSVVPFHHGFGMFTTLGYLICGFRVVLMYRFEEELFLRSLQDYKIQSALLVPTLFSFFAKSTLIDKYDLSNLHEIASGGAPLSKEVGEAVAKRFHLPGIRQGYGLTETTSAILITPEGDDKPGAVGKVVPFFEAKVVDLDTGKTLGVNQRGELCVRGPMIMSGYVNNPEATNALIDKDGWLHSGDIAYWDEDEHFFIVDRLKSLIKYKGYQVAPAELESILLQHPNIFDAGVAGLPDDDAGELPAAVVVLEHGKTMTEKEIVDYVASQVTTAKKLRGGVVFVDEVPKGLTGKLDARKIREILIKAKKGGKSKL

[3] = biological target: T3, mitochondrial pig heart malate dehydrogenase (pig, UniProt P00346 25-338)
T3 sequence (looked up): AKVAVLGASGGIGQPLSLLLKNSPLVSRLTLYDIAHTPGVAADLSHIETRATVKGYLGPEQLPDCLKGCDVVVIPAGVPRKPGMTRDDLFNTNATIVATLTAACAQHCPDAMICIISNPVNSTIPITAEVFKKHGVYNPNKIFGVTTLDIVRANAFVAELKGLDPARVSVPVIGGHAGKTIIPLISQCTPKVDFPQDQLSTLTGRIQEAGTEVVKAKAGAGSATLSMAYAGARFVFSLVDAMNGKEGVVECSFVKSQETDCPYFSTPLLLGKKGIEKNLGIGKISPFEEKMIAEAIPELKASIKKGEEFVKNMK

[4] = biological target: T1, pig heart citrate synthase; remark: listed apart in the source
[5] = biological target: T2, Recombinant firefly luciferase; remark: listed apart in the source
[6] = biological target: T3, mitochondrial pig heart malate …; remark: listed apart in the source
[7] = biological target: T2, Recombinant firefly luciferase; remark: listed apart in the source

B1: HSP18.1 from Pisum sativum (pea) (natural protein, UniProt P19243 1-158, looked up)
chain: MSLIPSFFSGRRSNVFDPFSLDVWDPLKDFPFSNSSPSASFPRENPAFVSTRVDWKETPEAHVFKADLPGLKKEEVKVEVEDDRVLQISGERSVEKEDKNDEWHRVERSSGKFLRRFRLPENAKMDKVKASMENGVLTVTVPKEEIKKAEVKSIEISG
ratio of complexes [Target]1:[Target]2 [1]: 2.9 [Target]2 per [Target]1
ratio of complexes [Target]1:[Target]2 [2]: 1.1 [Target]2 per [Target]1
ratio of complexes [Target]1:[Target]2 [3]: 1.6 [Target]2 per [Target]1
ratio of complexes [Target]1:[Target]2 [4]: 2 [Target]2 per [Target]1
ratio of complexes [Target]1:[Target]2 [5]: 2.2 [Target]1 per [Target]2
ratio of complexes [Target]1:[Target]2 [6]: 1.9 [Target]2 per [Target]1
stoichiometry N [7]: 19.4 ± 0.4 subunits of HSP18.1 per Luc
